Data: US20240294623A1 (SCHOLAR ROCK, published 2024)

Tests used:
hLTBP1-proTGFβ1 [1] = target: T1, hLTBP1-proTGFβ1 (human, UniProt Q14766 347-1721; P01137 30-390, limits assumed); assay: SPR (Biacore), Fab
T1 construct: Large latent complex (LLC): proTGFβ1 dimer disulfide-linked to one presenting molecule; recombinant, purified, biotinylated in BLI/SPR; The same id is used for the complex made by transfected cells in the reporter assays; also called human LTBP1-proTGFβ1 complex; LTBP1-ProTGFb1
Method: (§1) Surface plasmon resonance (SPR) was used to measure binding kinetics using a BIACORE® system. […] Experiments were carried out with eight types of LLCs, namely, hLTBP1-proTGFβ1, mLTBP1-proTGFβ1, hLTBP3-proTGFβ1, mLTBP3-proTGFβ1, hGARP-proTGFβ1, mGARP-proTGFβ1, hLRRC33-proTGFβ1 and mLRRC33-proTGFβ1.
(§2) In vitro binding kinetics (on/off rates) were measured in Biacore-based assays and affinities were determined against all four known LLCs using both human and murine counterparts for each. Based on the association rate and dissociation rate, KD was calculated for each. In addition, relative affinities, as compared to the reference antibody as a benchmark, were calculated and expressed as “fold difference” relative to the reference antibody.
(§3) A BIACORE® system was employed to determine the monovalent binding affinity and the kinetic parameters for antigen binding of test antibodies. The binding kinetics were evaluated by surface plasmon resonance using Biacore 8K (GE Healthcare). A Biotin CAP sensor chip was used to capture the biotinylated antigens. […] Multi-cycle kinetics was employed where each analyte concentration was injected in a separate cycle and the sensor chip surface was regenerated after each cycle. All the assays were carried out in freshly prepared 1×HBS-EP+buffer (10 mM HEPES, 150 mM NaCl, 3 mM EDTA, 0.05% Tween20, pH 7.4). Data for all the analyte concentrations for each interaction were fit globally to a 1:1 binding model to obtain the kinetic parameters. The Sensorgram for 0 nM analyte concentration was used as reference.

hLTBP3-proTGFβ1 [2] = target: T2, hLTBP3-proTGFβ1 (human, UniProt Q9NS15 44-1303; P01137 30-390, limits assumed); assay: SPR (Biacore), Fab
T2 construct: LLC as m1; Same id used for the cell-made complex in reporter assays; also called human LTBP3-proTGFβ1 complex; LTBP3-ProTGFb1
Method: as §1, §2, §3

mLTBP1-proTGFβ1 = target: T3, mLTBP1-proTGFβ1 (mouse); assay: SPR (Biacore), Fab
T3 construct: Murine LLC; also called murine LTBP1-proTGFβ1 complex
Method: as §1, §2, §3

mLRRC33-proTGFβ1 = mLRRC33-proTGFβ1 (murine, UniProt Q8BMT4 20-651); assay: SPR (Biacore), Fab
mGARP-proTGFβ1 = target: T4, mGARP-proTGFβ1 (mouse); assay: SPR (Biacore), Fab; affinity relative to Ref
T4 construct: Murine LLC; also called murine GARP-proTGFβ1 complex

hLRRC33-proTGFβ1 = target: T5, hLRRC33-proTGFβ1 (human, UniProt Q86YC3 19-650; P01137 30-390, limits assumed); assay: SPR (Biacore), Fab; affinity relative to Ref
T5 construct: LLC as m1; Same id used for the cell-surface complex in reporter assays; also called human LRRC33-proTGFβ1 complex; LRRC33-ProTGFb1

hLTBP1-proTGFβ1 [3] = target: T1, hLTBP1-proTGFβ1; assay: BLI (Octet), Fab in solution, biotinylated antigen immobilised
Method: (§4) The table below exemplifies binding kinetics of the listed antibodies (e.g., Fabs) obtained by OCTET®-based binding assays. The experiments were conducted with immobilized, biotinylated antigen and Fab fragments (e.g., test antibodies) in solution.

hLTBP3-proTGFβ1 [4] = target: T2, hLTBP3-proTGFβ1; assay: as above
Method: as §4

hGARP-proTGFβ1 = target: T6, hGARP-proTGFβ1 (human, UniProt Q14392 18-627; P01137 30-390, limits assumed); assay: as above
T6 construct: LLC as m1; Same id used for the cell-surface complex in reporter assays; also called human GARP-proTGFβ1 complex; GARP-ProTGFb1
Method: as §4

Chain of mLRRC33-proTGFβ1 (Q8BMT4 20-651): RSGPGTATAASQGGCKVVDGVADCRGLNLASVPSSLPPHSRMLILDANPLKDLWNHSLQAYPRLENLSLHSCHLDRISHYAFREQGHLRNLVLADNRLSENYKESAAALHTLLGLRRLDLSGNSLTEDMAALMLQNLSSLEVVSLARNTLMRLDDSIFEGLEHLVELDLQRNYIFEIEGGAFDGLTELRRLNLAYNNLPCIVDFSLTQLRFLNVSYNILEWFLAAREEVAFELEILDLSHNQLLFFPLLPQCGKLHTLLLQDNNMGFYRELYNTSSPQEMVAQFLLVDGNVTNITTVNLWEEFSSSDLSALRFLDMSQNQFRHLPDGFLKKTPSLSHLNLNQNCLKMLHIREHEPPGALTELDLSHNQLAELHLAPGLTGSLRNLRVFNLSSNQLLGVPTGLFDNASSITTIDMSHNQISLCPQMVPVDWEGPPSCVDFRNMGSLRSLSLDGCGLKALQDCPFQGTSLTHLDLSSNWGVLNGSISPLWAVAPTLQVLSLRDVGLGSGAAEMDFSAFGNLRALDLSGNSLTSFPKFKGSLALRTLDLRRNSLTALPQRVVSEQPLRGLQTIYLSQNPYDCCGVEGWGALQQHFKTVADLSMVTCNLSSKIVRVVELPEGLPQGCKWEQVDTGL
T3 sequence (Q8CG19 339-1712): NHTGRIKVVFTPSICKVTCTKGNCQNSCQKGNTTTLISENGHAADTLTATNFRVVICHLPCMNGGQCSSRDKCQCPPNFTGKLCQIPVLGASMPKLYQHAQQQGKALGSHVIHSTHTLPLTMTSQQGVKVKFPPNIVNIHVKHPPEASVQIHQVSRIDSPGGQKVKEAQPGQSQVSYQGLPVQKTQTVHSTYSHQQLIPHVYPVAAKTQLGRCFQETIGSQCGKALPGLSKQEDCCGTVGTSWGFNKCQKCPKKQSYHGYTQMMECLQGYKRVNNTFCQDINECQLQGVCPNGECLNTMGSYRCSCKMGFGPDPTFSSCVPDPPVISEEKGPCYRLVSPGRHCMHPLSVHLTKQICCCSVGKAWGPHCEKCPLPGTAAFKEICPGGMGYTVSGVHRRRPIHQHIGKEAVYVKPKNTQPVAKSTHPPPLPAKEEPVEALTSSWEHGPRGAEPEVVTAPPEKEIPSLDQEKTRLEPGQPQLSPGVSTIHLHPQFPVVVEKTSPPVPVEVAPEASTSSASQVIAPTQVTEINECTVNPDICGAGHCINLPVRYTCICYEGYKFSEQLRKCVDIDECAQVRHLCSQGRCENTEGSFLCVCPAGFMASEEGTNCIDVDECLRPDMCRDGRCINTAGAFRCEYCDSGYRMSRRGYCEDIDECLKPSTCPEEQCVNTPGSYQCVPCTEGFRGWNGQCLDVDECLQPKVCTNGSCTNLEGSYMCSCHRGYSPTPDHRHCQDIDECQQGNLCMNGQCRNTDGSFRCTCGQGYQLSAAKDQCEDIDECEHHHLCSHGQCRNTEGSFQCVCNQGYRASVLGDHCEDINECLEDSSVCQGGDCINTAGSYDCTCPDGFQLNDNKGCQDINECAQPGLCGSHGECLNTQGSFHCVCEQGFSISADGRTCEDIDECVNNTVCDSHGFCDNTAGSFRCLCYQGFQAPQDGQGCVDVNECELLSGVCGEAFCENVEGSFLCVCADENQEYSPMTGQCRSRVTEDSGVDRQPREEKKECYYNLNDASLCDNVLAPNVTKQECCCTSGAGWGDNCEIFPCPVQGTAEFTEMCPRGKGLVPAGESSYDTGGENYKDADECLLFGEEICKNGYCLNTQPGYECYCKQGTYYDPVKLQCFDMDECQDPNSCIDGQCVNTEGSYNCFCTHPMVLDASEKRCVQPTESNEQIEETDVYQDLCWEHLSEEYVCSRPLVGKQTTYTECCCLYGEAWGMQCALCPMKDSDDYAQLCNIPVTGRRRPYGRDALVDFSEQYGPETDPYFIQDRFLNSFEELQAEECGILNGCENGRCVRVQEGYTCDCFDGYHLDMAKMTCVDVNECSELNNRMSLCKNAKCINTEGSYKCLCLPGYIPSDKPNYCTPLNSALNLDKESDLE
T1 sequence (Q14766 347-1721 limits assumed, chain 1 of 2): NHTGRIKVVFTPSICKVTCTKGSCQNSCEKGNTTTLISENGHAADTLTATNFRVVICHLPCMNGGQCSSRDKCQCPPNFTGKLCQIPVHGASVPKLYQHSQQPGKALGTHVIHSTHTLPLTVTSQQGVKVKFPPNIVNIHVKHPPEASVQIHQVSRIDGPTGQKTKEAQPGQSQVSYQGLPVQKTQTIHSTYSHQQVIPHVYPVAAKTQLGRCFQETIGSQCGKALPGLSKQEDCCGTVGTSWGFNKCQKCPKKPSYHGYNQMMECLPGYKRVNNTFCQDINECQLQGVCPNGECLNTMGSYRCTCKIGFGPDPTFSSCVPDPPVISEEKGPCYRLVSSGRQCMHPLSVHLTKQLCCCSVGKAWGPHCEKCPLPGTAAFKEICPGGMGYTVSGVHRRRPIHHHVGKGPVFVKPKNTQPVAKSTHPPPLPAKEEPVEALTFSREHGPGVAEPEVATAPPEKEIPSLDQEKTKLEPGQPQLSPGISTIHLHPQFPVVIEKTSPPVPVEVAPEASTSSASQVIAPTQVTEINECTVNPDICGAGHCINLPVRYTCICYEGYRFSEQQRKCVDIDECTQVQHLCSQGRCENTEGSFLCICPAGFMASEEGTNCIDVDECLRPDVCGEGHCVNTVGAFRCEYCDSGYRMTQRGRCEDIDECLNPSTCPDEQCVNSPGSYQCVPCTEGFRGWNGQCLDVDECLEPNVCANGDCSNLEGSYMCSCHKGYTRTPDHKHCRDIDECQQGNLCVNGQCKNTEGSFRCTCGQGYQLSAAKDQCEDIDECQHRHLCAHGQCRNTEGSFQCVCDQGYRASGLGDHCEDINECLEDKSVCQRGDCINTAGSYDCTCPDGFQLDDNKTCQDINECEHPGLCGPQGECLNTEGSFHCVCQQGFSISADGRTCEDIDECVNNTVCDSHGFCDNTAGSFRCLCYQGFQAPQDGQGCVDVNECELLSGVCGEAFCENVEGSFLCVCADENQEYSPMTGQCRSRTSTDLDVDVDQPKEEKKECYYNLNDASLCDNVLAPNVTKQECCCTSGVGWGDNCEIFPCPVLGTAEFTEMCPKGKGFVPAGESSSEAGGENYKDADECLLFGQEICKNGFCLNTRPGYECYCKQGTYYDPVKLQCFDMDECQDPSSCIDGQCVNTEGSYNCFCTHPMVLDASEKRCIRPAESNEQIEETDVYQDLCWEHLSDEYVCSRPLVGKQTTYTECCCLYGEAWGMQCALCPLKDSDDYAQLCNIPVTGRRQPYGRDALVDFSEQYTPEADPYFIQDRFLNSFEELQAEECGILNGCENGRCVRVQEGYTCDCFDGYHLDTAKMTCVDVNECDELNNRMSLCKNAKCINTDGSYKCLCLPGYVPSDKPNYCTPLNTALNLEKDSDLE
T1 sequence (P01137 30-390 limits assumed, chain 2 of 2): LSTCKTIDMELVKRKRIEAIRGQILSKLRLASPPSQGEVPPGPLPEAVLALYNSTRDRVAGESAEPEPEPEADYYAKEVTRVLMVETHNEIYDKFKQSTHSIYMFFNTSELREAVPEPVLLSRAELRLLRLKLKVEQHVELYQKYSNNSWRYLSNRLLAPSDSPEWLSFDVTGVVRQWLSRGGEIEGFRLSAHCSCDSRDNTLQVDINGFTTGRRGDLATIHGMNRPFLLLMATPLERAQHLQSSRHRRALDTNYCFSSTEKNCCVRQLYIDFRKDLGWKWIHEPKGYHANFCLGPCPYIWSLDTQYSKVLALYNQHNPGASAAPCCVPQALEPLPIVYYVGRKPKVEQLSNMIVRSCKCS
T2 sequence (Q9NS15 44-1303 limits assumed, chain 1 of 2): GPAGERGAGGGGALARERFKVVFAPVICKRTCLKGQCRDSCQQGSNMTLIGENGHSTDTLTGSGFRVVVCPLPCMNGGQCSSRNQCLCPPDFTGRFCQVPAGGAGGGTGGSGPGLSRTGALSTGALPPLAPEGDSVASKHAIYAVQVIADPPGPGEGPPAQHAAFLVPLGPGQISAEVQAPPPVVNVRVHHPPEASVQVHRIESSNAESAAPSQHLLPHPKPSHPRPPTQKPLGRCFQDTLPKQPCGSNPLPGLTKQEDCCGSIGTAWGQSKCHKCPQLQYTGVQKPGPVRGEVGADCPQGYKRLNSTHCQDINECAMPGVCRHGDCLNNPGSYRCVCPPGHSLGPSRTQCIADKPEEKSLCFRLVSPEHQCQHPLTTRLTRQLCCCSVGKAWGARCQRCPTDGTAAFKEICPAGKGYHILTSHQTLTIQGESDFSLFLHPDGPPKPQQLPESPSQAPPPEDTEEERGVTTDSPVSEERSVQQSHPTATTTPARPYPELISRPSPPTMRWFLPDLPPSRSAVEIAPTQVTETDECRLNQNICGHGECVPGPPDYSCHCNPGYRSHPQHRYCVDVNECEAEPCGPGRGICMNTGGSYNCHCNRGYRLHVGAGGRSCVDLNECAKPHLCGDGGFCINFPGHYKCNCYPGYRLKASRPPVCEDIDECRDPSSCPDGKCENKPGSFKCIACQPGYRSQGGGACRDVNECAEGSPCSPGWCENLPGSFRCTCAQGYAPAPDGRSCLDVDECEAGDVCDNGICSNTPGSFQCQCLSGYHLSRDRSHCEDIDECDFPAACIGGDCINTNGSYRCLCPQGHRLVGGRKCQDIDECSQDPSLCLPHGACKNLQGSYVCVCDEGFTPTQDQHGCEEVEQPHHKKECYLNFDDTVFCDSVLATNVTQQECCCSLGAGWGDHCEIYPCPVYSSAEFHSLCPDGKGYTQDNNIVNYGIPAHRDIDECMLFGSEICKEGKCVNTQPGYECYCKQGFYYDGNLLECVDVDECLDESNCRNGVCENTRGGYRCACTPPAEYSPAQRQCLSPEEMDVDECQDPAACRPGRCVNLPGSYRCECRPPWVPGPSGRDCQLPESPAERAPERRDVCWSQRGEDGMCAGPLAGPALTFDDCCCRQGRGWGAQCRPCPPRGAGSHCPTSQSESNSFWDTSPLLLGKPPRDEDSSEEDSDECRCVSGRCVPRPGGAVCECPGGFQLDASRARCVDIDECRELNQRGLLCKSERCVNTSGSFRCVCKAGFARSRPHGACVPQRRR
T2 sequence (P01137 30-390 limits assumed, chain 2 of 2): as the sequence (P01137 30-390 limits assumed, chain 2 of 2) above

B1: Ab46 Fab (Fab, V domains shown)
VH: EVQLLESGGGLVQPGGSLRLSCAASGFTFADYAMTWVRQAPGKGLEWVSAISGSGAATYFADSVKGRFTISRDNSKNTLYLQMNSLRAEDTAVYYCARVSSGHWDYDYWGQGTLVTVSS
VL: DIQLTQSPSSLSASVGDRVTITCRASQSISSYLNWYQQKPGKAPKLLIYAASGLESGVPSRFSGSGSGTDFTLTISSLQPEDFATYYCQQTYGVPLTFGGGTKVEIK
notes: Fab fragment
B1 showed a Kd (hLTBP1-proTGFβ1 [1]) of 0.0502 nM, a koff (hLTBP1-proTGFβ1 [1]) of 8.81e-05 s⁻¹ and a kon (hLTBP1-proTGFβ1 [1]) of 1.75e+06 M⁻¹ s⁻¹. The Kd (hLTBP3-proTGFβ1 [2]) was 0.127 nM, the koff (hLTBP3-proTGFβ1 [2]) was 0.000128 s⁻¹ and the kon (hLTBP3-proTGFβ1 [2]) was 1e+06 M⁻¹ s⁻¹. For the same binder, the Kd (mLTBP1-proTGFβ1) was 0.0534 nM, the koff (mLTBP1-proTGFβ1) was 9.87e-05 s⁻¹ and the kon (mLTBP1-proTGFβ1) was 1.85e+06 M⁻¹ s⁻¹. The Kd (mLRRC33-proTGFβ1) was 0.0892 nM, the koff (mLRRC33-proTGFβ1) was 0.000112 s⁻¹ and the kon (mLRRC33-proTGFβ1) was 1.26e+06 M⁻¹ s⁻¹. The Fold difference (mGARP-proTGFβ1) was 69 fold, the Fold difference (hLRRC33-proTGFβ1) was 118 fold and the koff (hLTBP1-proTGFβ1 [3]) was 4.98e-05 s⁻¹. It also gave a kon (hLTBP1-proTGFβ1 [3]) of 703000 M⁻¹ s⁻¹, a koff (hLTBP3-proTGFβ1 [4]) of 0.000438 s⁻¹ and a kon (hLTBP3-proTGFβ1 [4]) of 619000 M⁻¹ s⁻¹. For the same binder, the koff (hGARP-proTGFβ1) was 0.00029 s⁻¹ and the kon (hGARP-proTGFβ1) was 703000 M⁻¹ s⁻¹.
